# Measured values as given in PMC9187738.
# B1: mouse IZUMO1-Venus (natural protein)
# chain: CIKCDQFVTDALKTFENTYLNDHLPHDIHKNVMRMVNHEVSSFGVVTSAEDSYLGAVDENTLEQATWSFLKDLKRITDSDLKGELFIKELLWMLRHQKDIFNNLARQFQKEVLCPNKCGVMSQTLIWCLKCEKQLHICRKSLDCGERHIEVHRSEDLVLDCLLSWHRASKGLTDYSFYRVWENSSETLIAKGKEPYLTKSMVGPEDAGNYRCVLDTINQGHATVIRYDVTVLPPKHSEENQPPNIITQEEHETPVHVTPQTPPGQEPESELYPELHPELYPELIPTVAQNPEKKMKTRLLILLTLGFVVLVASIIISVLHFRKVSAKLKNASDEVKPTASGSKSDQSLSQQMGLKKASQADFNSDYSGDKSEATEN
# Target: hamster JUNO (hamster)
# Experiment: live imaging-based adhesion molecule (LIAM) assay; BHK cells, non-inducible expression (cytomegalovirus promoter); separately transfected cells mixed in equal amounts 4 h after transfection, incubated 20 h, imaged every 6 min for 12 h at 40x, 37 °C, 5% CO2; read-outs: accumulation at the cell interface and translocation to the opposite cell, % of contacting cell pairs
binder,measurement,value
B1,IZUMO1 accumulation (% of contacting cell pairs),78%
